Laboratory results taken from US20100260717, “METHODS OF […] A […] FAMILY VIRAL INFECTION, COMPOSITIONS FOR […] A […] FAMILY VIRAL INFECTION, AND […] ASSAYS FOR […] COMPOSITIONS FOR […] A […] FAMILY VIRAL INFECTION” (published 2010).

Target: HuR (ELAVL1) (Homo sapiens, UniProt Q15717 Q15717:1-326)
Experiment: MITOMI; not inhibited by clemizole 0.1 mM, inhibited by ATA
Conditions: tags: C-terminal V5-6xHis; bodipy-Lys labelled; wheat germ extract; ORFeome clone (Open Biosystems); label: Cy3
Experimental: Binding of HuR to the consensus 4A RNA sequence was tested in the presence of the inhibitory molecules shown to inhibit RNA binding by NS4B.

Chain of HuR (ELAVL1) (Q15717 whole entry, one chain of several): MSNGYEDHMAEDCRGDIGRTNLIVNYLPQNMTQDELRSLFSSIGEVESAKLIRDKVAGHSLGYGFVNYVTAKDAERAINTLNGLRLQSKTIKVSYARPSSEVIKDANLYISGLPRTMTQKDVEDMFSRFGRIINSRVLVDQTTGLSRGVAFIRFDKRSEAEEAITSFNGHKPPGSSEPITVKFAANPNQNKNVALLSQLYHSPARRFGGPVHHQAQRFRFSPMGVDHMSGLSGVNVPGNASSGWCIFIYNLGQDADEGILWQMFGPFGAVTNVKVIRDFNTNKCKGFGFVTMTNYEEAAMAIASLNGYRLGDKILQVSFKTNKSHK

Binder: AUUUAUUUAUUUAUUUA (ssRNA) [4A]
- binding result: binds
